From patent US20230057177A1 (CULLGEN SHANGHAI, published 2023) come the findings set out here.

The labels stand for the following.
B1: Peptide 1 (SEQ ID NO: 1) (peptide)
peptide: ILPKVLHKRTLGLS
notes: No terminal modifications are stated for the tested peptide

A value given as a limit tells only on which side of the number the result lay.

In the first test the target is T1, His-DDB1 (human DNA damage-binding protein 1 with N-terminal His6-tag) (human, UniProt Q16531 1-1140).
T1 construct: Vector-derived residues between the His6-tag and DDB1 (pFastBacHTB) are not described; also called His-DDB1 proteins
T1 sequence (Q16531 other isoform, or with tags, fused parts or gaps limits assumed): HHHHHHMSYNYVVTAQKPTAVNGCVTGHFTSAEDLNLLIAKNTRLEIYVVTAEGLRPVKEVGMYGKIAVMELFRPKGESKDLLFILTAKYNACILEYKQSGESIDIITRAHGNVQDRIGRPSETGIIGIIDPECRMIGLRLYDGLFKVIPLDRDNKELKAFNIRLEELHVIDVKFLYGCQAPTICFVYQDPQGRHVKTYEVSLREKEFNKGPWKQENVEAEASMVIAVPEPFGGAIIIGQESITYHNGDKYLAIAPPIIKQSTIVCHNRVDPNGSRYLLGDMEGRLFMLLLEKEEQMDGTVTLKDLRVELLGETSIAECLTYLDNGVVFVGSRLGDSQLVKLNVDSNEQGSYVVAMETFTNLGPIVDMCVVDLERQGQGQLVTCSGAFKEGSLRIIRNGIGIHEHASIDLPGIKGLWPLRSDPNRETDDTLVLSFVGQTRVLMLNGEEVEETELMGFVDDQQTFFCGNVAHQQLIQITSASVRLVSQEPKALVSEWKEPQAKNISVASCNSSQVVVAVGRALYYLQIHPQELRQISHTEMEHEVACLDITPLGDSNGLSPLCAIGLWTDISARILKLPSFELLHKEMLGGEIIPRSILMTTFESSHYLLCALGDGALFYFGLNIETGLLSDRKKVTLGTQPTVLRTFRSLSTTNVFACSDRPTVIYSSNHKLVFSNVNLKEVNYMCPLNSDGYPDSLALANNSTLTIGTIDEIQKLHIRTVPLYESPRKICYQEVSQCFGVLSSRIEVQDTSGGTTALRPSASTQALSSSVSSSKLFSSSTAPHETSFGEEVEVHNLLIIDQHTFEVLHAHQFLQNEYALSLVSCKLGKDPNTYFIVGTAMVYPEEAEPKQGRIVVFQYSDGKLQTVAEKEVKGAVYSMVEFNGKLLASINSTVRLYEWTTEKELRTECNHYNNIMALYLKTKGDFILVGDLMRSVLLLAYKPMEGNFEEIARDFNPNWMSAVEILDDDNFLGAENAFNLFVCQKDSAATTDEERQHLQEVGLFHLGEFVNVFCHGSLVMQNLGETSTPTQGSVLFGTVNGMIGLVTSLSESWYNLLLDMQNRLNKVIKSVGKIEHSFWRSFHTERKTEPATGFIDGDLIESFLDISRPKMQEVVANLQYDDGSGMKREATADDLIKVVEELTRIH
The experiment in a line: SPR (Biacore), His-DDB1 amine-coupled on CM5 chip, steady state affinity fit; graded cell, table key: A: Kd < 20 uM. In general terms: SPR reads the build-up and loss of mass on a sensor chip optically.
The term Kd denotes the equilibrium constant for the complex coming apart. Regarding KVLHKRTLG [Peptide 5 (SEQ ID NO: 5)], the Kd is below 20 µM.
Same read-out and setting: for B1 the value was below 20 µM; for ILPKVWHKRELGLS [Peptide 2 (SEQ ID NO: 2)], below 20 µM.
ILPKVLHKRTLGL [Peptide 3 (SEQ ID NO: 3)] showed a dissociation constant Kd below 20 µM.
The same measure, in the same setting: for ILPKVLHKRTFGL [Peptide 4 (SEQ ID NO: 4)] the value was below 20 µM.
For the molecule NFTSRLNRRASFP [Peptide 6 (SEQ ID NO: 6)], the dissociation constant (Kd) was below 20 µM.

The next test concerns the target T1, His-DDB1 (human DNA damage-binding …). The experiment in a line: SPR (Biacore), His-DDB1 amine-coupled on CM5 chip, steady state affinity fit; graded cell, table key: B: Kd 20-100 uM (lower end of the range).
Molecule SRLNRRASF [Peptide 7 (SEQ ID NO: 7)] registered a dissociation constant Kd of 20 to 100 µM.
